Assay results reported in paper PMC6343778 (mAbs, 2018).

T1: human MICA*008 α3 domain with a C-terminal His8 (Homo sapiens, MICA*008)
T1 chain: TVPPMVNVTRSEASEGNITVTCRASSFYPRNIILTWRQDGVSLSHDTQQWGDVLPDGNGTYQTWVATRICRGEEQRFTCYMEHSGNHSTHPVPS


Legend:
[1] = differential scanning fluorimetry; conditions: glycan gained; control: wild-type HER2 ECD alone or human IgG1 Fc alone
[2] = biological target: T2, human MICB*005 α3 domain with a C-terminal His8 (Homo sapiens, MICB*005, UniProt Q29980); assay: SPR
[3] = biological target: T3, human MICA*002 α3 domain with a C-terminal His8 (Homo sapiens, MICA*002, UniProt Q29983); assay: SPR
[4] = biological target: T4, human MICA*004 α3 domain with a C-terminal His8 (Homo sapiens, MICA*004, UniProt Q29983); assay: SPR
[5] = biological target: T2, human MICB*005 α3 domain with a …; assay: cell-based or functional assay
[6] = biological target: T1, human MICA*008 α3 domain with a …; assay: SPR
[7] = biological target: T1, human MICA*008 α3 domain with a …; assay: cell-based or functional assay
[8] = biological target: T3, human MICA*002 α3 domain with a …; assay: cell-based or functional assay
[9] = biological target: T4, human MICA*004 α3 domain with a …; assay: cell-based or functional assay

Row | Molecule | stability_or_folding [1] | Kd [2] | Kd [3] | Kd [4] | EC50 of inhibition of MICB*005 shedding from the HCC1534 cell line [5] | Max % inhibition of MICB*005 shedding from the HCC1534 cell line [5] | Kd [6] | EC50 of inhibition of MICA*008 shedding from the MEL-JUSO cell line [7] | EC50 of inhibition of MICA*002 shedding from the PANC1 cell line [8] | EC50 of inhibition of MICA*004 shedding from the HCC1534 cell line [9] | Max % inhibition of MICA*004 shedding from the HCC1534 cell line [9]
1 | HER2 ECD: V308N | no change | – | – | – | – | – | – | – | – | – | –
2 | HER2 ECD: S310N | no change | – | – | – | – | – | – | – | – | – | –
3 | HER2 ECD: K333N | no change | – | – | – | – | – | – | – | – | – | –
4 | anti-MICA/B antibody 6E1 (hybridoma-derived mouse antibody) (antibody, V domains shown) VH: QGQMQQSGAELVKPGASVKLSCKTSGFTFSDNYISWLKQKPGQSLEWIAWIYAGTGGSSYNQKFRDKAQLTVDTSSRTAYMQLSSLTTEDSAIYYCARHDYYGTSGAWFAYWGRGTLVTVSA VL: DVLMTQTPLSLPVSLGDQASISCRSSQHIVHSNENTYLEWYLQKPGQSPKLLIYKVSNRFSGVPDRFSGSGSGTDFTLKISRVEAEDLGVYYCFQGSHVPWTFGGGTKLEIK | – | 5750 pM | 2960 pM | 8420 pM | 0.0724 µg/mL | 58% | – | – | – | – | –
5 | anti-MICA/B antibody 1D5 (hybridoma-derived mouse antibody) (antibody, V domains shown) VH: EIQLQQSGPELVKPGASVKVSCKASGYAFTSQNIYWVKQSHGKSLEWIGYIEPYNVVPMYNPKFKGKATLTVDKSSSSAYIHLNSLTSEDSAIYYCARSGSSNFDYWGQGTTLTVSS VL: EIILTQSPTTMAASPGEKITITCSASSSISSHYLHWYQQKSGFSPKLLIYRTSNLASGVPARFSGSGSGTSYSLTIGTMEAEDVATYYCQQGSSLPLTFGAGTKLEIK | – | 1090 pM | 675 pM | 486 pM | 0.0386 µg/mL | 59% | 420 pM | 0.0207 µg/mL | 0.0341 µg/mL | 0.0136 µg/mL | 65%
6 | anti-MICA/B antibody 13A9 (hybridoma-derived mouse antibody) (antibody, V domains shown) VH: QVQLQQSGAELVRPGTSVKVSCKASGYAFTNYLIEWVKQRPGQGLEWIGAINPGSGATNYNEKFKDKARLTADKSSNTAYLQFSSLTSDDSAVYFCARFLGNYFDNWGQGATLTVSS VL: DIQMTQSPASLSASVGETVTITCRASGNIHSYLAWYQQKQGKSPQLLVYYAETLADGVPSRFSGRGSGTQYSLKINSLQPEDFGSYFCQQFWTTPYTFGGGTKVEIK | – | 968 pM | 499 pM | 1550 pM | 0.0349 µg/mL | 76% | 940 pM | 0.794 µg/mL | 0.418 µg/mL | 0.599 µg/mL | 56%
